Assay results: patent US6570002 (Johns Hopkins, dated 2003)

Target: T1, Aven (human, UniProt Q9NQS1 1-362)
T1 construct: also called Bif-1
T1 sequence: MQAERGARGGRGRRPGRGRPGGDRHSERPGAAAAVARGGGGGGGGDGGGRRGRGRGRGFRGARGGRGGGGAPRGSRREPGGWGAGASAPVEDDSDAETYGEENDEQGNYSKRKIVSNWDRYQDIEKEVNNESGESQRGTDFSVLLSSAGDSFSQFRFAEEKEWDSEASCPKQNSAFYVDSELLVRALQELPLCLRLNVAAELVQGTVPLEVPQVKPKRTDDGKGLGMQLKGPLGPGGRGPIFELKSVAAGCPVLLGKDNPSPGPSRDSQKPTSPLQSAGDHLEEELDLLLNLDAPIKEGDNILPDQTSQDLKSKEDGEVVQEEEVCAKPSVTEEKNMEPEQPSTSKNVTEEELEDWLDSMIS
Test: yeast two-hybrid / co-immunoprecipitation (FIG. 6)

B1: Bak (other, UniProt Q16611 1-211, looked up)
chain: MASGQGPGPPRQECGEPALPSASEEQVAQDTEEVFRSYVFYRHQQEQEAEGVAAPADPEMVTLPLQPSSTMGQVGRQLAIIGDDINRRYDSEFQTMLQHLQPTAENAYEYFTKIATSLFESGINWGRVVALLGFGYRLALHVYQHGLTGFLGQVTRFVVDFMLHHCIARWIAQRGGWVAALNLGNGPILNVLVVLGVVLLGQFVVRRFFKS
**Q.** Does B1 bind?
**A.** no binding
